These results are taken from PMC4084651 (DNA repair, 2013).

The target of data set [1] is T1, SsoRadA (Saccharolobus solfataricus, UniProt Q55075).
T1 sequence (Q55075 1-324): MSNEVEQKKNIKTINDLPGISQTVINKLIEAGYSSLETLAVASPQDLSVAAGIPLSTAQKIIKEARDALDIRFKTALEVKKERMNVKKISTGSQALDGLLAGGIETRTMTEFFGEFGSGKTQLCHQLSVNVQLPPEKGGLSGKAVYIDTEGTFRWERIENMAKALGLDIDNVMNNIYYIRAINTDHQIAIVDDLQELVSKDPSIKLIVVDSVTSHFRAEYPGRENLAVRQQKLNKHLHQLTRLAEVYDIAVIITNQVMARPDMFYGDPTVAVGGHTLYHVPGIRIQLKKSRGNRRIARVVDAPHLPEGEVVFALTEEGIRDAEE
Kind of data set: filter binding, saturation binding curve.

Data set [2] concerns the target SsoRadA (Saccharolobus solfataricus, UniProt Q55075, K120R). Kind of data set: filter binding, saturation binding curve.
In data set [3] the target is T2, SsoRadA K120A (Sulfolobus solfataricus, UniProt Q55075 1-324, K120A).
T2 sequence: T1 sequence (Q55075 1-324) with K120A
Kind of data set: EMSA.

Data set [4] deals with T3, SsoRadA (Sulfolobus solfataricus, UniProt Q55075 1-324).
T3 sequence: T1 sequence (Q55075 1-324)
Kind of data set: EMSA.

The target in data set [5] is T2, SsoRadA K120A. Description: EMSA. The source holds these as a separate data set. (In general: Mobility shift assays separate free from complexed probe on a gel.)
The target of the next data set is T4, SsoRadA K120R (Sulfolobus solfataricus, UniProt Q55075 1-324, K120R).
T4 sequence: T1 sequence (Q55075 1-324) with K120R
Description: EMSA.

Data set [6] deals with T3, SsoRadA. Description: EMSA. This is another data set of the same source.

Changes are numbered by the printed parent chain. Like-named read-outs stand apart in the source and are kept apart here.

Chain of SsoRadA (Saccharolobus solfataricus, UniProt Q55075, K120R) (Q55075 whole entry K120R): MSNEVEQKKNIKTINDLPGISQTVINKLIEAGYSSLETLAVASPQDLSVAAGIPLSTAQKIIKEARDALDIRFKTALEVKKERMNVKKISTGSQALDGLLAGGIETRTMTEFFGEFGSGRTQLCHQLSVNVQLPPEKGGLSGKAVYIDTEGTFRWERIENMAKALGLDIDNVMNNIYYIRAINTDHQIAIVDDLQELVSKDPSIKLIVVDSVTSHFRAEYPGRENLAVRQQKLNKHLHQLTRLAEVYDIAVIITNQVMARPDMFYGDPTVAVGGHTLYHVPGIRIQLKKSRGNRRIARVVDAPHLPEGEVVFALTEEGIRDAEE

The Kd is the concentration at which binding is half-saturated. Read a high Kd as a looser complex. Turning to `Nc1ncnc2c1ncn2[C@@H]1O[C@H](COP(=O)(O)OP(=O)(O)OP(=O)(O)O)[C@@H](O)[C@H]1O` [ATP], the Kd came out at 2.4 ± 0.6 µM at SsoRadA [1] and 59.4 ± 9.4 µM at SsoRadA [2].

B1: 63-mer ssDNA (ssDNA)
DNA: ACAGCACCAATGAAATCTATTAAGCTCCTCATCGTCCGCAAAAATATCGTCACCTCAAAAGGA
On to B1, for which the binding result in the data set with SsoRadA K120A [3] and in the data set with SsoRadA [4] was “binds” in each case.

B2: 63-mer dsDNA (dsDNA)
DNA 1: B1 DNA
DNA 2: TCCTTTTGAGGTGACGATATTTTTGCGGACGATGAGGAGCTTAATAGATTTCATTGGTGCTGT
With B2, the binding result in the data set with SsoRadA K120A [5], with SsoRadA K120R and with SsoRadA [6] was “no binding” each time.
